These binders were tested against IL16_4, Q14005 (assay: holdup assay). Conditions: plain residues with an end cap or a label only (N-terminal biotin on a linker: ado-ado).
Design: key: below the threshold = too weak to quantify, mostly under pKd 3.1 to 4

Chain of IL16_4, Q14005 (Q14005 1229-1329): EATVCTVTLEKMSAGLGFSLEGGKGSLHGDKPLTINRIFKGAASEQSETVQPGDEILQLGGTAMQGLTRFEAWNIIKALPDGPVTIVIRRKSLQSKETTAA

Binder | pKd
GTMFLRETSL [GUCY1A2, P33402] | 3.51
FVFESRKEIL [TBPL1, P62380] | below the threshold

These binders were tested against GIPC2, Q8TF65 (assay: holdup assay). Conditions: plain residues with an end cap or a label only (N-terminal biotin on a linker: ado-ado).
Design: key: below the threshold = too weak to quantify, mostly under pKd 3.1 to 4

Chain of GIPC2, Q8TF65 (Q8TF65 112-203): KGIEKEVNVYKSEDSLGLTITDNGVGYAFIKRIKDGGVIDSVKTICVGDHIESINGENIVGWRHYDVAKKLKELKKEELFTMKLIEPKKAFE

Binder | pKd
GTMFLRETSL [GUCY1A2, P33402] | 4
FVFESRKEIL [TBPL1, P62380] | below the threshold

What follows are binders tested against DLG4_3, P78352 (assay: holdup assay). Conditions: plain residues with an end cap or a label only (N-terminal biotin on a linker: ado-ado).
Design: key: below the threshold = too weak to quantify, mostly under pKd 3.1 to 4

Chain of DLG4_3, P78352 (P78352 306-403): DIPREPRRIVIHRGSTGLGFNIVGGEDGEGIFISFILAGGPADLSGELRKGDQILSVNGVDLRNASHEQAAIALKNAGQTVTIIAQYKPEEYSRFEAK

Binder | pKd
GTMFLRETSL [GUCY1A2, P33402] | 4.86
FVFESRKEIL [TBPL1, P62380] | below the threshold

Each binder was assayed against LNX1_1, Q8TBB1 (assay: holdup assay). Conditions: plain residues with an end cap or a label only (N-terminal biotin on a linker: ado-ado).
Design: key: below the threshold = too weak to quantify, mostly under pKd 3.1 to 4

Chain of LNX1_1, Q8TBB1 (Q8TBB1 261-371): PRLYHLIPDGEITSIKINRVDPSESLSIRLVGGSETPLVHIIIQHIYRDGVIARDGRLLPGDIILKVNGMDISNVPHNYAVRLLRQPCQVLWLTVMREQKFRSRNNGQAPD

Binder | pKd
GTMFLRETSL [GUCY1A2, P33402] | 3.73
FVFESRKEIL [TBPL1, P62380] | below the threshold

The binders below were run against FRMPD4, Q14CM0 (assay: holdup assay). Conditions: plain residues with an end cap or a label only (N-terminal biotin on a linker: ado-ado).
Design: key: below the threshold = too weak to quantify, mostly under pKd 3.1 to 4

Chain of FRMPD4, Q14CM0 (Q14CM0 67-160): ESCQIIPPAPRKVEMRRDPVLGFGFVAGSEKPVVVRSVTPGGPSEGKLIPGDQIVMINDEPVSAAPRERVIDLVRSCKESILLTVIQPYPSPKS

Binder | pKd
GTMFLRETSL [GUCY1A2, P33402] | 4.35
FVFESRKEIL [TBPL1, P62380] | below the threshold

Each binder was assayed against T1, APBA3_1, O96018 (assay: holdup assay). Conditions: plain residues with an end cap or a label only (N-terminal biotin on a linker: ado-ado).
T1 sequence (O96018 389-490, limits assumed, looked up): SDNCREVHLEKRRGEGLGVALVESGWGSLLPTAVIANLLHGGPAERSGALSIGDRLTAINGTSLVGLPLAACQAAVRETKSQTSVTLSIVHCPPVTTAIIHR
Design: key: below the threshold = too weak to quantify, mostly under pKd 3.1 to 4

Binder | pKd
GTMFLRETSL [GUCY1A2, P33402] | below the threshold
FVFESRKEIL [TBPL1, P62380] | below the threshold

What follows are binders tested against T2, TX1BP3, O14907 (assay: holdup assay). Conditions: plain residues with an end cap or a label only (N-terminal biotin on a linker: ado-ado).
T2 sequence (O14907 10-122, limits assumed, looked up): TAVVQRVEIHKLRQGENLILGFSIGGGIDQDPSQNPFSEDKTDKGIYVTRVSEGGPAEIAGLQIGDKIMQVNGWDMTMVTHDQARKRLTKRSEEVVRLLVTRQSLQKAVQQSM
Design: key: below the threshold = too weak to quantify, mostly under pKd 3.1 to 4

Binder | pKd
GTMFLRETSL [GUCY1A2, P33402] | 5.31
FVFESRKEIL [TBPL1, P62380] | below the threshold

These binders were tested against T3, GRIP1_3, Q9Y3R0 (assay: holdup assay). Conditions: plain residues with an end cap or a label only (N-terminal biotin on a linker: ado-ado).
T3 sequence (Q9Y3R0 247-346, limits assumed, looked up): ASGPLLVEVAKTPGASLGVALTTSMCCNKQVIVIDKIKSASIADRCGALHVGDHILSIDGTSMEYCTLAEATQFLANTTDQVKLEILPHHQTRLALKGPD
Design: key: below the threshold = too weak to quantify, mostly under pKd 3.1 to 4

Binder | pKd
GTMFLRETSL [GUCY1A2, P33402] | below the threshold
FVFESRKEIL [TBPL1, P62380] | below the threshold

The binders below were run against PDZRN4_1, Q6ZMN7 (assay: holdup assay). Conditions: plain residues with an end cap or a label only (N-terminal biotin on a linker: ado-ado).
Design: key: below the threshold = too weak to quantify, mostly under pKd 3.1 to 4

Chain of PDZRN4_1, Q6ZMN7 (Q6ZMN7 213-318): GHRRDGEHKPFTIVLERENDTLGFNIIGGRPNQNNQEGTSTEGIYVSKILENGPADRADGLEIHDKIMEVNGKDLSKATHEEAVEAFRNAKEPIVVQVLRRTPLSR

Binder | pKd
GTMFLRETSL [GUCY1A2, P33402] | 5.71
FVFESRKEIL [TBPL1, P62380] | below the threshold

These binders were tested against GRIP2_7, Q9C0E4 (assay: holdup assay). Conditions: plain residues with an end cap or a label only (N-terminal biotin on a linker: ado-ado).
Design: key: below the threshold = too weak to quantify, mostly under pKd 3.1 to 4

Chain of GRIP2_7, Q9C0E4 (Q9C0E4 934-1023): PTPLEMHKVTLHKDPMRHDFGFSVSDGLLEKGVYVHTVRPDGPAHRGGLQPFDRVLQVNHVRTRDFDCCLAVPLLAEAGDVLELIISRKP

Binder | pKd
GTMFLRETSL [GUCY1A2, P33402] | 3.84
FVFESRKEIL [TBPL1, P62380] | below the threshold

These binders were tested against GRIP2_4, Q9C0E4 (assay: holdup assay). Conditions: plain residues with an end cap or a label only (N-terminal biotin on a linker: ado-ado).
Design: key: below the threshold = too weak to quantify, mostly under pKd 3.1 to 4

Chain of GRIP2_4, Q9C0E4 (Q9C0E4 446-548): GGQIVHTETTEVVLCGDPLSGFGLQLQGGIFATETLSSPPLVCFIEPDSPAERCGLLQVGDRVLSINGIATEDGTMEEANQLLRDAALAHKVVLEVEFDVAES

Binder | pKd
GTMFLRETSL [GUCY1A2, P33402] | below the threshold
FVFESRKEIL [TBPL1, P62380] | below the threshold

These binders were tested against SNX27, Q96L92 (assay: holdup assay). Conditions: plain residues with an end cap or a label only (N-terminal biotin on a linker: ado-ado).
Design: key: below the threshold = too weak to quantify, mostly under pKd 3.1 to 4

Binder | pKd
GTMFLRETSL [GUCY1A2, P33402] | 5.72
FVFESRKEIL [TBPL1, P62380] | below the threshold

Each binder was assayed against LNX1_2, Q8TBB1 (assay: holdup assay). Conditions: plain residues with an end cap or a label only (N-terminal biotin on a linker: ado-ado).
Design: key: below the threshold = too weak to quantify, mostly under pKd 3.1 to 4

Chain of LNX1_2, Q8TBB1 (Q8TBB1 371-470): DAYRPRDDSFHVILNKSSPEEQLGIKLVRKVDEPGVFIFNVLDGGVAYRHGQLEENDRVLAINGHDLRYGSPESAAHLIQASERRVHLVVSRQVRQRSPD

Binder | pKd
GTMFLRETSL [GUCY1A2, P33402] | below the threshold
FVFESRKEIL [TBPL1, P62380] | below the threshold

What follows are binders tested against T4, SNTB1, Q13884 (assay: holdup assay). Conditions: plain residues with an end cap or a label only (N-terminal biotin on a linker: ado-ado).
T4 sequence (Q13884 107-205, limits assumed, looked up): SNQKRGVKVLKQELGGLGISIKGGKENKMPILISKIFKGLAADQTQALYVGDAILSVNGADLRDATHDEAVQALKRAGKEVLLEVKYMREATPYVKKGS
Design: key: below the threshold = too weak to quantify, mostly under pKd 3.1 to 4

Binder | pKd
GTMFLRETSL [GUCY1A2, P33402] | 5.39
FVFESRKEIL [TBPL1, P62380] | below the threshold

These binders were tested against T5, PDZRN3_1, Q9UPQ7 (assay: holdup assay). Conditions: plain residues with an end cap or a label only (N-terminal biotin on a linker: ado-ado).
T5 sequence (Q9UPQ7 244-349, limits assumed, looked up): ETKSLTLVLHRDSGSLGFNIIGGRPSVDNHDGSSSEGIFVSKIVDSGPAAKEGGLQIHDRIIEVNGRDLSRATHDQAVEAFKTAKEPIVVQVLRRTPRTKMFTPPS
Design: key: below the threshold = too weak to quantify, mostly under pKd 3.1 to 4

Binder | pKd
GTMFLRETSL [GUCY1A2, P33402] | 6.34
FVFESRKEIL [TBPL1, P62380] | below the threshold

What follows are binders tested against GORASP1, Q9BQQ3 (assay: holdup assay). Conditions: plain residues with an end cap or a label only (N-terminal biotin on a linker: ado-ado).
Design: key: below the threshold = too weak to quantify, mostly under pKd 3.1 to 4

Chain of GORASP1, Q9BQQ3 (Q9BQQ3 1-208): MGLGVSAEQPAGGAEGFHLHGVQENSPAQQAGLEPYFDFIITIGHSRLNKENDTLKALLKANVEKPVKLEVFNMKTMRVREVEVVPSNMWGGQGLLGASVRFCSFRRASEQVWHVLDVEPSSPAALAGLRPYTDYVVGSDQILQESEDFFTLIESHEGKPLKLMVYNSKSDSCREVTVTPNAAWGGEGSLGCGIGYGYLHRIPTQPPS

Binder | pKd
GTMFLRETSL [GUCY1A2, P33402] | below the threshold
FVFESRKEIL [TBPL1, P62380] | 3.57

These binders were tested against MAGI1_1, Q96QZ7 (assay: holdup assay). Conditions: plain residues with an end cap or a label only (N-terminal biotin on a linker: ado-ado).
Design: key: below the threshold = too weak to quantify, mostly under pKd 3.1 to 4

Chain of MAGI1_1, Q96QZ7 (Q96QZ7 1-106): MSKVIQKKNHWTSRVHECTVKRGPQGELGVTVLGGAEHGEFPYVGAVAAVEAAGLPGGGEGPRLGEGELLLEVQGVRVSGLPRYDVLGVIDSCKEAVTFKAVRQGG

Binder | pKd
GTMFLRETSL [GUCY1A2, P33402] | below the threshold
FVFESRKEIL [TBPL1, P62380] | below the threshold

Each binder was assayed against Inadl_1, Q8NI35 (assay: holdup assay). Conditions: plain residues with an end cap or a label only (N-terminal biotin on a linker: ado-ado).
Design: key: below the threshold = too weak to quantify, mostly under pKd 3.1 to 4

Chain of Inadl_1, Q8NI35 (Q8NI35 113-229): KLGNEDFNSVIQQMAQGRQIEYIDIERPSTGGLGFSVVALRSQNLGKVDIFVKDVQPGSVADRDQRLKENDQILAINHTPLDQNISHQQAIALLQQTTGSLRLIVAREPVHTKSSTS

Binder | pKd
GTMFLRETSL [GUCY1A2, P33402] | below the threshold
FVFESRKEIL [TBPL1, P62380] | below the threshold

The binders below were run against MAGI2_5, Q86UL8 (assay: holdup assay). Conditions: plain residues with an end cap or a label only (N-terminal biotin on a linker: ado-ado).
Design: key: below the threshold = too weak to quantify, mostly under pKd 3.1 to 4

Chain of MAGI2_5, Q86UL8 (Q86UL8 915-1017): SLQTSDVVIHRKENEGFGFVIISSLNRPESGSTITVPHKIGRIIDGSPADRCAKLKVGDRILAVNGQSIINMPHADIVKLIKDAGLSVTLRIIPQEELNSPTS

Binder | pKd
GTMFLRETSL [GUCY1A2, P33402] | 3.98
FVFESRKEIL [TBPL1, P62380] | below the threshold

What follows are binders tested against MAGI1_2, Q96QZ7 (assay: holdup assay). Conditions: plain residues with an end cap or a label only (N-terminal biotin on a linker: ado-ado).
Design: key: below the threshold = too weak to quantify, mostly under pKd 3.1 to 4

Chain of MAGI1_2, Q96QZ7 (Q96QZ7 456-580): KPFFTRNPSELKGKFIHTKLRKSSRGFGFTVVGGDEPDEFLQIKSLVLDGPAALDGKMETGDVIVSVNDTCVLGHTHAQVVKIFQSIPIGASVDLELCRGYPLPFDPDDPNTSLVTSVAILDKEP

Binder | pKd
GTMFLRETSL [GUCY1A2, P33402] | 4.24
FVFESRKEIL [TBPL1, P62380] | below the threshold

What follows are binders tested against T6, DFNB31_1, Q9P202 (assay: holdup assay). Conditions: plain residues with an end cap or a label only (N-terminal biotin on a linker: ado-ado).
T6 sequence (Q9P202 135-233, limits assumed, looked up): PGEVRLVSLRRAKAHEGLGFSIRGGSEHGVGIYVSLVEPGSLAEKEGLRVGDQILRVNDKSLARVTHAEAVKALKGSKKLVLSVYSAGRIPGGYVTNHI
Design: key: below the threshold = too weak to quantify, mostly under pKd 3.1 to 4

Binder | pKd
GTMFLRETSL [GUCY1A2, P33402] | 4.85
FVFESRKEIL [TBPL1, P62380] | below the threshold

The binders below were run against Inadl_6, Q8NI35 (assay: holdup assay). Conditions: plain residues with an end cap or a label only (N-terminal biotin on a linker: ado-ado).
Design: key: below the threshold = too weak to quantify, mostly under pKd 3.1 to 4

Chain of Inadl_6, Q8NI35 (Q8NI35 1058-1167): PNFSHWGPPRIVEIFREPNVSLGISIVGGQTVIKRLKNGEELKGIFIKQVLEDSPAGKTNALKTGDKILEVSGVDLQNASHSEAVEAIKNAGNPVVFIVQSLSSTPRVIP

Binder | pKd
GTMFLRETSL [GUCY1A2, P33402] | 4.84
FVFESRKEIL [TBPL1, P62380] | below the threshold

Each binder was assayed against SCRIB_3, Q14160 (assay: holdup assay). Conditions: plain residues with an end cap or a label only (N-terminal biotin on a linker: ado-ado).
Design: key: below the threshold = too weak to quantify, mostly under pKd 3.1 to 4

Chain of SCRIB_3, Q14160 (Q14160 999-1103): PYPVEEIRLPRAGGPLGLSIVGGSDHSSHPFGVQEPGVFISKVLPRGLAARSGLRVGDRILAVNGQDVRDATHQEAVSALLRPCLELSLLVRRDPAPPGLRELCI

Binder | pKd
GTMFLRETSL [GUCY1A2, P33402] | 5.37
FVFESRKEIL [TBPL1, P62380] | below the threshold

The binders below were run against T7, RADIL, Q96JH8 (assay: holdup assay). Conditions: plain residues with an end cap or a label only (N-terminal biotin on a linker: ado-ado).
T7 sequence (Q96JH8 971-1071, limits assumed, looked up): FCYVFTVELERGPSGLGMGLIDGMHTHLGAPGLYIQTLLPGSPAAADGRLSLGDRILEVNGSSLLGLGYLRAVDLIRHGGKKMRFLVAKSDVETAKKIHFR
Design: key: below the threshold = too weak to quantify, mostly under pKd 3.1 to 4

Binder | pKd
GTMFLRETSL [GUCY1A2, P33402] | below the threshold
FVFESRKEIL [TBPL1, P62380] | below the threshold

What follows are binders tested against T8, GRIP1_5, Q9Y3R0 (assay: holdup assay). Conditions: plain residues with an end cap or a label only (N-terminal biotin on a linker: ado-ado).
T8 sequence (Q9Y3R0 568-668, limits assumed, looked up): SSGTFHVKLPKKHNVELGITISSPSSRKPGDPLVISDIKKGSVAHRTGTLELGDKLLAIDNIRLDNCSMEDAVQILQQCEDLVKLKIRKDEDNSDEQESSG
Design: key: below the threshold = too weak to quantify, mostly under pKd 3.1 to 4

Binder | pKd
GTMFLRETSL [GUCY1A2, P33402] | below the threshold
FVFESRKEIL [TBPL1, P62380] | below the threshold

The binders below were run against LNX1_3, Q8TBB1 (assay: holdup assay). Conditions: plain residues with an end cap or a label only (N-terminal biotin on a linker: ado-ado).
Design: key: below the threshold = too weak to quantify, mostly under pKd 3.1 to 4

Chain of LNX1_3, Q8TBB1 (Q8TBB1 500-596): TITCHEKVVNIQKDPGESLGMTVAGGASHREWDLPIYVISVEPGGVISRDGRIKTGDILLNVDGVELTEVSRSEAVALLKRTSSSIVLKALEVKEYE

Binder | pKd
GTMFLRETSL [GUCY1A2, P33402] | below the threshold
FVFESRKEIL [TBPL1, P62380] | below the threshold

These binders were tested against MAGI2_6, Q86UL8 (assay: holdup assay). Conditions: plain residues with an end cap or a label only (N-terminal biotin on a linker: ado-ado).
Design: key: below the threshold = too weak to quantify, mostly under pKd 3.1 to 4

Chain of MAGI2_6, Q86UL8 (Q86UL8 1141-1229): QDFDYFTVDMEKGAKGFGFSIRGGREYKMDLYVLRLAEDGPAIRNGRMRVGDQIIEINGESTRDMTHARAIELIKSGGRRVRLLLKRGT

Binder | pKd
GTMFLRETSL [GUCY1A2, P33402] | 4.51
FVFESRKEIL [TBPL1, P62380] | below the threshold

What follows are binders tested against PICK1, Q9NRD5 (assay: holdup assay). Conditions: plain residues with an end cap or a label only (N-terminal biotin on a linker: ado-ado).
Design: key: below the threshold = too weak to quantify, mostly under pKd 3.1 to 4

Chain of PICK1, Q9NRD5 (Q9NRD5 17-115): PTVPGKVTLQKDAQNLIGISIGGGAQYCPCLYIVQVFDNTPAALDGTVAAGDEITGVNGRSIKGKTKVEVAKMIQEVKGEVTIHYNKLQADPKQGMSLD

Binder | pKd
GTMFLRETSL [GUCY1A2, P33402] | 4.12
FVFESRKEIL [TBPL1, P62380] | below the threshold

These binders were tested against DLG5_1, Q8TDM6 (assay: holdup assay). Conditions: plain residues with an end cap or a label only (N-terminal biotin on a linker: ado-ado).
Design: key: below the threshold = too weak to quantify, mostly under pKd 3.1 to 4

Chain of DLG5_1, Q8TDM6 (Q8TDM6 617-713): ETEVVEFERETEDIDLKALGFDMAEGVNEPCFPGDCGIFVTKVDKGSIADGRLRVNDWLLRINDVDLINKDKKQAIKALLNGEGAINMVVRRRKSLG

Binder | pKd
GTMFLRETSL [GUCY1A2, P33402] | below the threshold
FVFESRKEIL [TBPL1, P62380] | below the threshold

From article PMC9482650, “Quantitative fragmentomics allow affinity mapping of interactomes” (Nature Communications, 2022)
